From patent EP2305804B1 come the findings set out here.

“And” between values parts separate entries of the source, which are not always exact repeats. Equal entries are not always repeated.

In this assay the target is Rabbit GH receptor, full length, stably expressed on murine FDC-P1 cells (GH-R4 cell line) (rabbit) (UniProt P19941). Nature of the assay: cell-based or functional assay.
Chain of UniProt P19941 (P19941 19-638): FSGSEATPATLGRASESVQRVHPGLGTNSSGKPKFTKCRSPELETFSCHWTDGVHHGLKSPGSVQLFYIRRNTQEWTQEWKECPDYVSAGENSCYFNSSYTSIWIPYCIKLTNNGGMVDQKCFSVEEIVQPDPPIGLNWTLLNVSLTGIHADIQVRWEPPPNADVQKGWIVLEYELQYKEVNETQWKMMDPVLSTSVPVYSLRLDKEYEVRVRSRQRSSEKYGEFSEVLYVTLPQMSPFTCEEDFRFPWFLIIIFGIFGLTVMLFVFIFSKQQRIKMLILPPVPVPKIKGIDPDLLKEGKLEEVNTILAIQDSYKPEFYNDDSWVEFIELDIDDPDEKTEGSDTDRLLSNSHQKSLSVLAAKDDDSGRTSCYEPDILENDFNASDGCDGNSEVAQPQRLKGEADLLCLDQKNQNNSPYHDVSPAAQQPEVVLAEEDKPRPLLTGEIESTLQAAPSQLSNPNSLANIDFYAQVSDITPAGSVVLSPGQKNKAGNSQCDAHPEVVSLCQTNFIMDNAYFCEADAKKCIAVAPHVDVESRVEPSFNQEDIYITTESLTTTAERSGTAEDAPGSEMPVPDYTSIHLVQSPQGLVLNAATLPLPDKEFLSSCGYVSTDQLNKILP

In turn, “hGH cysteine mutein T3C, disulfide-linked homodimer (from UniProt P01241 27-217) (ligand)” came in with a Mean EC50, MTS cell proliferation assay, GH-R4 cells (T3C dimer) of 1.4 ng/mL.

In the case of “PEG-S144C, monoPEGylated hGH cysteine mutein S144C (5 kDa maleimide-PEG) (from UniProt P01241 27-217) (ligand)”, the EC50, individual experiment, MTS cell proliferation assay, GH-R4 cells was 40 ng/mL and 45 ng/mL; the Mean EC50, MTS cell proliferation assay, GH-R4 cells came to 43 ng/mL; the Mean EC50 in molar units, MTS cell proliferation assay, GH-R4 cells came to 2 nM.

Substance “PEG-T3C, monoPEGylated hGH cysteine mutein T3C (5 kDa maleimide-PEG) (from UniProt P01241 27-217) (ligand)” showed a Mean EC50, MTS cell proliferation assay, GH-R4 cells of 1.6 ng/mL and a Mean EC50 in molar units, MTS cell proliferation assay, GH-R4 cells of 0.07 nM.

Take “Wild-type recombinant human growth hormone (rhGH), secreted to the E. coli periplasm with the stII signal sequence (from UniProt P01241 27-217) (ligand)”: the EC50, individual experiment, MTS cell proliferation assay, GH-R4 cells was 0.8 ng/mL and 1.1 ng/mL; the Mean EC50, MTS cell proliferation assay, GH-R4 cells is 0.8 ng/mL.

Substance “hGH cysteine mutein S144C (from UniProt P01241 27-217) (ligand)” showed a Mean EC50, MTS cell proliferation assay, GH-R4 cells of 1.6 ng/mL.

As to “hGH cysteine mutein T148C (from UniProt P01241 27-217) (ligand)”, the EC50, individual experiment, MTS cell proliferation assay, GH-R4 cells (T148C-lotA) is 0.4 ng/mL and 0.5 ng/mL; the EC50, individual experiment, MTS cell proliferation assay, GH-R4 cells (T148C-lotB) was 1.5 ng/mL and 1.9 ng/mL and 3.1 ng/mL; the Mean EC50, MTS cell proliferation assay, GH-R4 cells (T148C-lotA) was found to be 0.5 ng/mL; the Mean EC50, MTS cell proliferation assay, GH-R4 cells (T148C-lotB) was 2.5 ng/mL.
